In paper doi:10.1101/2020.02.11.944462:

Assays:
[1] = biological target: 2019-nCoV S prefusion-stabilized ectodomain (residues 1-1208, two proline substitutions, GSAS at the (2019-nCoV | bacteriophage T4)); assay: cryo-EM structure
[2] = biological target: 2019-nCoV S prefusion-stabilized ectodomain (residues 1-1208, two proline substitutions, GSAS at the (2019-nCoV | bacteriophage T4)); assay: SPR; […], Biacore X100; 10 mM HEPES pH 8.0, 150 mM NaCl, 0.05% Tween 20; […]; 1:1 binding model

Sequence of human angiotensin-converting enzyme 2 (ACE2), residues 1-615, untagged (Q9BYF1 18-615): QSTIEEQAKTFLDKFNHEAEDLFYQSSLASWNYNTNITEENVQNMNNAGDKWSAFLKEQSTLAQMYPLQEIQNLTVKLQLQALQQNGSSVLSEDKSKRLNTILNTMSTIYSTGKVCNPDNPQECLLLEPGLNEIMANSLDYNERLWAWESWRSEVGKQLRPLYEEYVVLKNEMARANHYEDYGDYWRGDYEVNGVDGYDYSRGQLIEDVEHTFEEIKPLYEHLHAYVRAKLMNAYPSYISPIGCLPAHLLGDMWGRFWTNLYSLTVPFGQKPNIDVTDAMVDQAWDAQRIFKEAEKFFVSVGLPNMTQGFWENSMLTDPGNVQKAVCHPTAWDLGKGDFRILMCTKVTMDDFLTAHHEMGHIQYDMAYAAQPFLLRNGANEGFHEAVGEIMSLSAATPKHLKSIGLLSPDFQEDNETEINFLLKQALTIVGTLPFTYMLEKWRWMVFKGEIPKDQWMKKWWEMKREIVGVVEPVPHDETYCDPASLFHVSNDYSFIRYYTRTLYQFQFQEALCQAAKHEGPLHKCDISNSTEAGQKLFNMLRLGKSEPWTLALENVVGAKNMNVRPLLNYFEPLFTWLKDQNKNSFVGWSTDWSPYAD

Substance | stoichiometry N [1] | Kd [2]
2019-nCoV S prefusion-stabilized ectodomain (residues 1-1208, two proline substitutions, GSAS at the (domain or fragment) | 3 | –
human angiotensin-converting enzyme 2 (ACE2), residues 1-615, untagged (from UniProt Q9BYF1 18-615) (receptor) | – | 15 nM
